Laboratory results from publication PMC12355088, “Structural analysis of TRIM family PRYSPRY domains and its implications for E3-ligand design” (Journal of Structural Biology: X, 2025).

Biological target: the molecule itself
Test: SEC; Superdex-75 column, elution compared with marker proteins (BSA, ovalbumin, carbonic anhydrase, ribonuclease A)

B1: TRIM36 PRYSPRY domain (domain or fragment, human)
chain: TPPAPVFSFLFDEKCGYNNEHLLLNLKRDRVESRAGFNLLLAAERIQVGYYTSLDYIIGDTGITKGKHFWAFRVEPYSYLVKVGVASSDKLQEWLRSPRDAVSPRYEQDSGHDSGSEDACFDSSQPFTLVTIGMQKFFIPKSPTSSNEPENRVLPMPTSIGIFLDCDKGKVDFYDMDQMKCLYERQVDCSHTLYPAFALMGSGGIQLEEPITAKYLEYQEDM
notes: PRYSPRY domain of human TRIM36, with an additional C-terminal helix; theoretical MW of the dimer 52.4 kDa; Cloned into pNIC-CTH0; also called TRIM36 domain
  stoichiometry N: 2
